Three substances from PMC5105194 can be followed below.

pKd: −log10 of the molar value.

The target in assay [1] is retromer cargo selective complex VPS26/VPS29/VPS35 (UniProt Q96QK1). The assay can be described thus: ITC; TBC proteins (100∼200 μM) injected into retromer proteins (8–16 μM); 20 °C; 20 mM Tris pH 8, 200 mM NaCl, 5 mM βME; one set of sites model. (Isothermal titration calorimetry measures the heat released or taken up as one component is titrated into another.)
In assay [2] the target is AlexaFluor488-labelled Rab7-GMPPNP (aa 1–186-Cys and Cys143Ser) (UniProt P51149). The assay can be described thus: fluorescence polarisation; fluorescence anisotropy, direct binding: proteins titrated into 50 nM AlexaFluor488-labelled Rab7-GMPPNP; 20 °C; 20 mM Tris pH 8.0, 100 mM NaCl, 2 mM MgCl2, 5 mM βME; single-site 1:1 model.
AlexaFluor488-labelled Rab7-GMPPNP (aa 1–186-Cys and Cys143Ser), sequence (P51149 other isoform, or with tags, fused parts or gaps C143S): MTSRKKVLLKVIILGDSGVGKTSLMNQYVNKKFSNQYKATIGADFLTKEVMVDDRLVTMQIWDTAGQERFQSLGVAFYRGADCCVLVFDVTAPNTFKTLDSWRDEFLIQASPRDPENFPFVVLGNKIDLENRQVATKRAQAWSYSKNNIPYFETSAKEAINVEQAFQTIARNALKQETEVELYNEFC
The target in assay [3] is TBC1d5^TBC/CSC complex (UniProt Q96QK1). Kind of assay: fluorescence polarisation; fluorescence anisotropy, competition: unlabelled Rab7-GMPPNP titrated into 8 μM TBC1d5/CSC and 50 nM labelled Rab7-GMPPNP; 20 °C; competitive binding one-site model. A general note: In fluorescence polarisation assays a small probe gives low polarisation when free and higher when bound to something large.

TBC1d5^TBC, sequence (Q92609 whole entry, the tested form may be a part): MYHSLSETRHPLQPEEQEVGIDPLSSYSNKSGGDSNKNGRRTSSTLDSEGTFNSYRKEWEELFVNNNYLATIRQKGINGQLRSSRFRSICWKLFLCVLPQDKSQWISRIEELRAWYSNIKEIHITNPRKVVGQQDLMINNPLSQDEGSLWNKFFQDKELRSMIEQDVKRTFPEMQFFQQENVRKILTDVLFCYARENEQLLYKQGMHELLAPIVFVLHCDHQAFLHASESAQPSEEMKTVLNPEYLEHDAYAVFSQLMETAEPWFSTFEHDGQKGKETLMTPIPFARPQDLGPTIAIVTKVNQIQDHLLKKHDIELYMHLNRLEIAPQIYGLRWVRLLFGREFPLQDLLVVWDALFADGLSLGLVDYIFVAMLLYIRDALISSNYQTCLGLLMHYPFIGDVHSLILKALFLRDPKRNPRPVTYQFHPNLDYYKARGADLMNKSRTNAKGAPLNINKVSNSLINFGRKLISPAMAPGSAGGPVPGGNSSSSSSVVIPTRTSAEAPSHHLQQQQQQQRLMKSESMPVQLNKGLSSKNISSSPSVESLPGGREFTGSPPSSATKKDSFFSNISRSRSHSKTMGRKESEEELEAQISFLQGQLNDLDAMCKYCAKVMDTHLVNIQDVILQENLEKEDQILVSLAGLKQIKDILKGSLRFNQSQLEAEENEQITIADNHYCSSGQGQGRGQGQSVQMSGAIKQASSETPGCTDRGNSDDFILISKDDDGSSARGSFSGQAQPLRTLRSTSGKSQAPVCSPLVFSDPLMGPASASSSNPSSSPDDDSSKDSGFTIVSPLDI

In general, pKd refers to −log10 of the Kd, conventionally taken in molar units. Read a high pKd as a low Kd. What is called stoichiometry N is the number of molecules, sites or subunits per partner or assembly. In assay [1], “TBC1d5^TBC (from UniProt Q92609 1-795) (domain or fragment)” gave a pKd of 6.66 and a stoichiometry N of 1.
Take “TBC1d5^TBC/CSC complex (from UniProt Q96QK1 1-796; Q9UBQ0 1-182; O75436 1-327)”: the negative-log Kd (pKd) in assay [2] was 4.94.
“unlabelled Rab7-GMPPNP (from UniProt P51149 1-86) (natural protein)”: the pKd in assay [3] was 4.44.
